According to the supplement of paper PMC12042874:
± gives the uncertainty stated by the source.

Assay: amyloid nucleation score (Sup35N fusion, yeast selection) (log enrichment); library NNK1; higher = more nucleation; inactive = no reads after selection
How it was run: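 In psi-negative yeast, Sup35N fusions carrying peptides of 20 random codons were induced with 100 μM copper sulfate for 24 hours. The cells then grew 7 days at 30°C on medium lacking adenine and uracil, and plasmid inserts from input and output were Illumina-sequenced, excluding sequences with under 100 input reads. Nucleation score is the DiMSum log enrichment of output over input reads, centred on the mode score of non-aggregating sequences.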

Substance | amyloid nucleation score
ILTMVEILKTIRGSA | -0.316 ± 0.47
AALENAGWLMAMANKRPSKR | -0.614 ± 0.64
LVILVTIVDFMEDLSW | 0.74 ± 0.54
NFAYGVNYLSAVKGCFTFAR | -0.206 ± 1.5
FIFSAVGRNN | -0.411 ± 0.57
YTMRGASRSTTDLLKIMIYM | -2.83 ± 2.4
MSDSRIVTVIVRRQPVSQRS | 1.33 ± 0.84
CLFWDSCYRKLLTIYDNM | -0.941 ± 0.63
HDSLKFVKQSFFCPEVYIPG | -0.596 ± 0.47
LMTLINPQFFSCSFLDDVSN | -0.362 ± 0.6
IFVSHYNVR | 0.734 ± 0.25
GSGVDSRVSCKKFILSLVGA | -0.39 ± 1.7
VCMTTLCWISSGVGFLHWSS | 3.98 ± 0.068
HSLEDMKHRLGLGGWSSCKV | 0.183 ± 0.57
YCIYVGFDLMCLSVWNGHRS | -1.39 ± 0.66
FLLDMV | -0.175 ± 0.45
GEKYNIFNFGFVLCSSLVLF | 8.116 ± 0.049
VTRVRFGSVWGSQVHRNFVM | 0.212 ± 0.4
NLTWRGSRDTFECYVDGA | -0.186 ± 0.47
ASLTFFS | 0.283 ± 0.76
FAKVESLLWAGICTGRDEVM | -0.318 ± 0.46
IYFHLGGCI | -0.376 ± 0.42
VVCGIPVFNLRYL | -0.495 ± 0.42
YMDVTGDVK | -0.067 ± 0.85
VMQFGVSGNAGC | 0.778 ± 0.55

Substance | amyloid nucleation score
DMQIWFLYDCI | inactive
GNWAVGSIRDSCICGYIELR | 6.915 ± 0.046
YHCLWGFVGVLKSDSLRDRR | 0.602 ± 0.38
ANWCF | -0.213 ± 0.5
FLLLAC | 0.197 ± 0.9
SDFRMTGLLTWYRSI | -0.228 ± 0.51
CHRRMMNEWSGLKNVLFKKG | 0.791 ± 0.97
NCLCIMSPCLLPCWEWVSYR | 5.834 ± 0.055
RCCIIDLFS | 4.87 ± 0.066
ASPMVRISYLNDHKQLKKF | -0.414 ± 0.28
CSTRGFGGD | -0.921 ± 1.1
IMKYPETGLAGRLLTGYTLS | 0.633 ± 0.61
YVHQRGNNTSAMLAWVLPRH | -0.766 ± 0.5
KSRAGMNKACTQLYPLV | -0.215 ± 0.34
SGMCTYL | 0.513 ± 0.33
DQRRGFSMETSYTD | 1.42 ± 0.71
RIVSSFLLSVVGCGMEVVRV | 0.349 ± 0.63
ECVNLLR | 0.471 ± 0.25
EMTPLLCATVRKPWKRVMIN | -0.311 ± 0.73
YWRNKGVVCGLCYDIVR | -0.019 ± 0.97
SWYGVYPFEIGFESGLESTL | -0.429 ± 0.41
VLIKLCGYTILIRFGRFLCR | -0.203 ± 0.61
HSQLLGMPFTSSVDS | 0.635 ± 0.97
FFNCFLLDNNYVSLYLWSKD | 6.832 ± 0.068
MSSVLFYYGFNTFEYSDMYM | -0.15 ± 0.33

Substance | amyloid nucleation score
RDAEWTMIIIIARNQMKAFS | -0.162 ± 0.4
WNIRRIRSDTRTLFKCNL | 0.636 ± 0.32
DCRFNRGGFNNVR | 0.514 ± 0.31
QNDLERWAEGQASKMLG | 0.433 ± 0.4
DASLVGLQLSHHSILFHCSM | 0.021 ± 1.2
LDKYLHLRLWHTVFWYSTIK | inactive
EPVYISDWWTACEVADHVSL | inactive
FLSYYTCILFPGDMHGSYLS | 7.226 ± 0.055
GLKGDIWDMGYSFGWRDGDA | 0.297 ± 0.51
IHMLIVLSF | -0.103 ± 1.4
TFVACDLKCPRCAWVGDFVM | -0.912 ± 0.5
VGYLFRSTSFV | inactive
SCSGSRMRELAAVYTVIIEY | -1.04 ± 1.1
SSWSFHARWRVRAISCACN | -0.062 ± 0.51
CTSDHSSFAKFLLLTCCLLL | 0.841 ± 0.92
LAVERGHCIQVRGLKCLIES | 1.66 ± 0.47
CLVFWETECSA | -0.323 ± 0.29
RKSDEGMKSPIGREIMGKSM | 0.431 ± 0.9
RRDSYFCVWYFWGPDEGCPF | 4.46 ± 0.1
SEVQAPHIRCINIRALYLRN | 2.08 ± 0.39
SWCPSQEWFMRYVFSTMCRT | 0.302 ± 0.57
RYSSVKLEMKSQVVIELTLI | 1.09 ± 0.76
LFFQPLVLFKKRLEYCFRLL | 0.2 ± 0.6
NYVYR | -0.742 ± 1.2
YMNTFVIRSMHSLLNGYAFS | 0.429 ± 0.88

Substance | amyloid nucleation score
ILMYMWDKLNLYNIWFLRQV | 0.263 ± 0.5
FLSSCDGGLIGMHGTGFTAQ | 0.426 ± 0.45
KALVADC | 0.001 ± 0.34
FIVLAYCLSFWVAIYPEVHM | 0.581 ± 0.73
SSCLEGCKSEACGWSNDGPG | -0.048 ± 0.76
NNLWCSFS | -0.577 ± 0.43
SIYEVEGVTLGLEEHNMKGE | -0.43 ± 0.43
ILSAMVRE | -0.081 ± 0.23
FLRHLSSCCHLATLCVDWGA | -0.103 ± 1.4
TSHSCHIVGAFMKKCWFSST | -0.057 ± 0.65
CDKKWIASQSMVGRRTMV | inactive
QYSHDRRFLPGMVHVRLFLE | 0.662 ± 0.38
DYAFKFCFQLVDKAYRSLSY | -0.413 ± 0.27
PIRVM | -0.495 ± 0.43
DWSRQFYMFVNVKARLFRGT | -0.05 ± 0.69
PALLEIQWSSCGV | -0.02 ± 0.72
YFFFYYYVVTIRKLLHVMGT | -0.854 ± 0.63
YFKAMEVTFSFWH | 0.491 ± 0.23
YNLRMDGVCGTVLRYVVEGR | -0.403 ± 1.4
SMDTLLHP | -0.155 ± 0.23
MNCVLIVVPRMTLGNYRSSW | 5.21 ± 0.053
RAQYYYICRWRYYTWPVPR | -0.515 ± 1
ITVGEYVNHCSG | 0.224 ± 1.4
YRSFAYEGSSRIGG | -0.022 ± 0.38
VSSGRRIGCVSPGSGEAREW | 0.376 ± 0.61

Substance | amyloid nucleation score
GWSSFWGPLVCARVWRRIGE | 0.433 ± 0.54
CEGCSWFSCSF | 0.749 ± 0.48
LMSLRDQRVLALN | -0.533 ± 0.44
TGYVIGWVSWTSWWEMGLYR | -2.43 ± 2.4
FDIDDIICIM | -1.89 ± 1.4
FNIAALSEYCGPLKSNAHW | -0.27 ± 0.64
SLVLSSFPLLIDNSSIESLV | -0.82 ± 0.42
LDQIQIFSEIGVFRLVCQHI | -0.164 ± 0.64
SLPFTFSLVMMCFFVCVRGL | -1.76 ± 1.2
KLVIETSPCVRSHVSLVQKR | -0.277 ± 0.26
KVVKCS | -0.97 ± 0.3
GGYRVLIFSIFRG | 0.599 ± 0.51
FYHKTFVYKEGLNGAALLGM | -0.023 ± 0.48
RARDIKWGCLFVCLTCMSTG | 3.76 ± 0.067
SPTTRTCNLVKIQGTNLSHR | 1.36 ± 0.66
WCLESINFRRMCMASSG | 0.893 ± 0.41
MYRMFRSFKFEWYCELWVLS | -0.125 ± 0.5
VFQVTWGWSCMREVELSSGT | 0.343 ± 0.67
TSYGISLPAHP | 0.541 ± 0.75
FTLHYCLMDAFWGSSMDRGV | 0.275 ± 0.41
FSVKFVSNPFSQLLSARPWW | -0.603 ± 0.34
KKALTALM | 0.822 ± 0.98
EGMAARSWDCMYVWG | 0.35 ± 0.42
KLYPFL | 0.565 ± 0.32
KNLKW | 0.476 ± 0.97

Substance | amyloid nucleation score
DFVMGYYVELWFMYASL | 0.4 ± 0.21
LLAVCYVIF | 1.98 ± 0.24
KAKTFI | 0.268 ± 1.2
YSLYTNSHVPAWHSPSISHG | -0.38 ± 0.82
IQSSPIR | 0.464 ± 0.88
CNYWRNRRWF | 1.48 ± 0.33
LERKMYRNISSLTVVGYTMS | -0.095 ± 0.51
SGLLVITFVNEFLYKNVYPL | 1.95 ± 0.25
NNMYTNVRVLKGRCLWVY | 0.376 ± 0.28
MRFSPVPCLNF | 0.353 ± 0.43
GKTISGL | 0.239 ± 0.44
FLKLPFTKSSWSF | -0.317 ± 1.4
YGRSP | 0.597 ± 0.46
YLWLYVLSRTWVFNKHPSPI | -0.543 ± 0.41
FQAQWNLSTCPNAFCLFLIR | 5.82 ± 0.059
ISPYPPRHLLQWVCKGE | 0.034 ± 0.68
TGSTR | 0.391 ± 0.22
YMRRVLPRCHPIWNGFPFAR | 0.254 ± 0.93
VFSMC | inactive
PQRQFDLIVD | 0.563 ± 0.81
IYSARFIGVRPNYYCMDARP | -0.85 ± 0.88
NGFNKSRAQWFGSVSCSPEG | 0.174 ± 1.5
CFFRTDGLDTPYGAYLVRSF | 2.31 ± 0.2
CWTLSDVLFDNNLFTMNMGP | -0.291 ± 0.67
HVQEDLNAVGHPLEFEMTVR | -0.979 ± 1.9

Substance | amyloid nucleation score
SYFVIFSGTM | inactive
SSSVCASFAVWSCCASF | 4.52 ± 0.084
YLRKIRVLNMGAAAEKALLG | 0.641 ± 0.68
PVMFVDSMSVWVLLVCYRR | 0.19 ± 0.74
LYLMGVRVMGNSICTLVRRL | inactive
CNSFCGMHCGNV | 0.238 ± 0.62
WAILLSWGYKGSRAWWFFSI | -0.721 ± 0.49
WVLTVVFVDKWREAYMYATF | inactive
LYYCSFRYMIKTRNLNVTFL | 6.4 ± 0.084
WSLLCDCASGQCVMR | 0.005 ± 0.44
HWTTHESRKMVGQRFQPVGG | 0.078 ± 0.34
VALLTNWFTGPQPLTMFTRV | 1.14 ± 0.9
NSPKYLKLSCSTLLTALLGR | 1.16 ± 0.28
CMSIRWSCYPLNNQVVATEV | 0.044 ± 0.29
AWLNRSYRMLHPMWGVCMDM | 1.26 ± 0.85
TCKTCLR | 0.858 ± 1.1
VIAKRPSMWGSKRNFRLVRV | 0.512 ± 0.88
ICIASFCKKNVTCGLIWLIV | 1.51 ± 0.7
PCYWQPPRRVAVATLSAAAL | -0.312 ± 0.49
IMTSWFLPQSCQNDWDKLY | -0.012 ± 0.2
GNLVTCNSKYTRMEG | 0.166 ± 0.49
TMICFVVGFFGIQDKVVKCD | 0.135 ± 0.84
PYDYRI | -0.503 ± 0.46
LVLANTDSLTLWFLVTYLTC | -0.42 ± 0.62
